Reference: US20110311556A1 (LFB BIOTECHNOLOGIES, published 2011)

T1: Rhesus D antigen (RhD) on Rhesus D positive red blood cells group O R1R1 (human, UniProt Q02161 2-417)
T1 construct: whole, on cells
T1 sequence (looked up): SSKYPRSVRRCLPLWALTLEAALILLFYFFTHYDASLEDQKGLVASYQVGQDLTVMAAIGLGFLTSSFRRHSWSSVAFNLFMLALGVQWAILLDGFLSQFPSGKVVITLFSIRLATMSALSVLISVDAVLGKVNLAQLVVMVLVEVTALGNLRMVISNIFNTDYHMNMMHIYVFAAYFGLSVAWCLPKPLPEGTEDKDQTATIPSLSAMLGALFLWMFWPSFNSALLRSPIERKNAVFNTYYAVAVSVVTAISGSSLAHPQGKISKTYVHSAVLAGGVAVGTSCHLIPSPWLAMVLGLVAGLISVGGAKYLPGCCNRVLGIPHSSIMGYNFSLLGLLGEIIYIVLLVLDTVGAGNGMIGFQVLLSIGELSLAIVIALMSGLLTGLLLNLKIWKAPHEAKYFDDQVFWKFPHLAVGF


Legend:
CD16 (FcγRIII receptor) = CD16 (FcγRIII receptor) (UniProt P08637 17-254, limits assumed); experiment: cell-based or functional assay
CD16 (FcγRIII receptor), sequence (P08637 17-254 limits assumed): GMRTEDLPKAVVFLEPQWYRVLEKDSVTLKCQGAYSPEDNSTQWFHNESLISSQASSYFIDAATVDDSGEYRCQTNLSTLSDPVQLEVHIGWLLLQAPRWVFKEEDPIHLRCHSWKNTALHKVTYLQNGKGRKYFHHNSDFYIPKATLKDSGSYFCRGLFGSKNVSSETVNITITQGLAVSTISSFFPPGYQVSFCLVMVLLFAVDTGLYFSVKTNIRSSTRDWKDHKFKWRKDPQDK

[1] = target: T1, Rhesus D antigen (RhD) on Rhesus D …; experiment: cytometric determination of anti-D specific activity on red blood cells

ADCC activity: EC50 (antibody concentration producing 50% of maximum activity) (CD16 (FcγRIII receptor)) [ng/mL]	binding result [1]	Binder
20	binds	non-mutant (C68) anti-D antibody (sequence of the R297 antibody of clone T125 A2) (antibody, human IgG1, kappa, IgG1 tetramer; also called non-mutant (C68) antibody; T125 anti-D antibody) heavy: not shown light: AIRMTQSPSSFSASTGDRVTITCRASQDIRNYVAWYQQKSGKAPKFLIYAASTLQSGVPSRFSGSGSGTDFTLTINSLQSEDFATYYCQQYYNSPPTFGQGTRVEITRTVAAPSVFIFPPSDEQLKSGTASVVCLLNNFYPREAKVQWKVDNALQSGNSQESVTEQDSKDSTYSLSSTLTLSKADYEKHKVYACEVTHQGLSSPVTKSFNRGEC
21	binds	R593 antibody (mutant (F68) anti-D antibody) (antibody, human IgG1, kappa, Tetrameric IgG1 with kappa light chain, two heavy and two light chains; Phenylalanine at heavy chain position 68 (67 by Kabat); Produced in the YB2/0 line; also called mutant (F68) antibody; mutant F68 antibody) heavy: not shown light: AIRMTQSPSSFSASTGDRVTITCRASQDIRNYVAWYQQKSGKAPKFLIYAASTLQSGVPSRFSGSGSGTDFTLTINSLQSEDFATYYCQQYYNSPPTFGQGTRVEITRTVAAPSVFIFPPSDEQLKSGTASVVCLLNNFYPREAKVQWKVDNALQSGNSQESVTEQDSKDSTYSLSSTLTLSKADYEKHKVYACEVTHQGLSSPVTKSFNRGEC
